# Measurements: patent US20180049457A1, “ENZYMATIC SYNTHESIS OF SOLUBLE GLUCAN FIBER” (E I DU PONT DE NEMOURS AND COMPANY, priority 2014, published 2018)
# B1: GTF0974T1: T1 C-terminal truncation of GTF0974, SEQ ID NO: 136, strain SG1304 (protein)
# chain: INGKQYYVNSDGSVRKNFVFEQDGKSYYFDAETGALATKSQDEFSTEPIKATVDFSSGNQLYKNDDKSLDQLDTFITADAWYRPKSILKDGKTWTASTEADKRPLLMVWWPDKSTQVNYLNYMQNQGLGAGSFSTNSSQESLDQAAKAVQTKIEERIAREGNTNWLRTSIDQFIKTQPGWNSSTENSSYDHLQGGQLLFNNSKGDTGNRTSHANSDYRLLNRTPTNQTGTRKYFKDNSIGGLEFLLANDIDNSNPAVQAEQLNWLHFMMNIGSIMANDPTANFDGLRVDALDNVDADLLQIASDYFKAAYGVDKSEANAIKHLSYLEAWSANDPYYNKDTKGAQLPIDNALRNALTNLLMRDKNTRMQLGDMTAFINSSLNPRGANDKNGERMANYIFTRAHDTEAQTIIQRIIRDRINPNLFGYNFTRDEIKKAFEIYNEDIDKAHKTYASYNLPSVYALMLTNKDSVTRVYYGDLYREDGHYMAKKTPYFDAIDTLLRARIKYVAGGQDMEVKKVGNDGLLTSVRYGKGANNRTDLGTSETRTQGMGVIMTNNYDFRLGSNETVTMNMGRAHRNQLYRPLLLTTKDGIATYLNDSDVPKKLLKRTDWNGNLTFNANDVFGVENVQVSGYLGVWVPYGAKANQDARTQPSNRANSDGQVYKSSAALDSQVMYEAFSNFQAFADDQPELYMNRVLAKNTDLLKAWGITSVGLPPQYVSSKDGTFLDSTIDNGYAFDDRYDMALSQNNKYGSLEDLLNVLRALHKDGIQAIADWVPDQIYNLPGKEVVNATRVNGYGNHQVGYQIIDQAYVANTRTDGTDYQGKYGGAFLDELKAKYPSIFNRVQISNGKQLPTNEKITKWSAKYFNGTNILGRGINYVLRDDKTNQYFNTSANSQLLPTPLRDTGAIT
# modifications: T1 C-terminal truncation of GTF0974
# B2: GTF0974T6: T6 C-terminal truncation of GTF0974, SEQ ID NO: 140, strain SG1306 (protein)
# chain: INGKQYYVNSDGSVRKNFVFEQDGKSYYFDAETGALATKSQDEFSTEPIKATVDFSSGNQLYKNDDKSLDQLDTFITADAWYRPKSILKDGKTWTASTEADKRPLLMVWWPDKSTQVNYLNYMQNQGLGAGSFSTNSSQESLDQAAKAVQTKIEERIAREGNTNWLRTSIDQFIKTQPGWNSSTENSSYDHLQGGQLLFNNSKGDTGNRTSHANSDYRLLNRTPTNQTGTRKYFKDNSIGGLEFLLANDIDNSNPAVQAEQLNWLHFMMNIGSIMANDPTANFDGLRVDALDNVDADLLQIASDYFKAAYGVDKSEANAIKHLSYLEAWSANDPYYNKDTKGAQLPIDNALRNALTNLLMRDKNTRMQLGDMTAFINSSLNPRGANDKNGERMANYIFTRAHDTEAQTIIQRIIRDRINPNLFGYNFTRDEIKKAFEIYNEDIDKAHKTYASYNLPSVYALMLTNKDSVTRVYYGDLYREDGHYMAKKTPYFDAIDTLLRARIKYVAGGQDMEVKKVGNDGLLTSVRYGKGANNRTDLGTSETRTQGMGVIMTNNYDFRLGSNETVTMNMGRAHRNQLYRPLLLTTKDGIATYLNDSDVPKKLLKRTDWNGNLTFNANDVFGVENVQVSGYLGVWVPYGAKANQDARTQPSNRANSDGQVYKSSAALDSQVMYEAFSNFQAFADDQPELYMNRVLAKNTDLLKAWGITSVGLPPQYVSSKDGTFLDSTIDNGYAFDDRYDMALSQNNKYGSLEDLLNVLRALHKDGIQAIADWVPDQIYNLPGKEVVNATRVNGYGNHQVGYQIIDQAYVANTRTDGTDYQGKYGGAFLDELKAKYPSIFNRVQISNGKQLPTNEKITKWSAKYFNGTNILGRGINYVLRDDKTNQYFNTSANSQLLPTPLRDTGAITSTQVFQRRGQDVYFLRDNQAVKNEFVQDGNGNWYYFGGDGKMTKGAQNINNKDYYFFDNGIQLRNALRRASNGYTYYYGLDGAMVKNAFVDFDDKHKQVRAFTTQG
# modifications: T6 C-terminal truncation of GTF0974
# B3: GTF0974T2: T2 C-terminal truncation of GTF0974, SEQ ID NO: 138, strain SG1305 (protein)
# chain: INGKQYYVNSDGSVRKNFVFEQDGKSYYFDAETGALATKSQDEFSTEPIKATVDFSSGNQLYKNDDKSLDQLDTFITADAWYRPKSILKDGKTWTASTEADKRPLLMVWWPDKSTQVNYLNYMQNQGLGAGSFSTNSSQESLDQAAKAVQTKIEERIAREGNTNWLRTSIDQFIKTQPGWNSSTENSSYDHLQGGQLLFNNSKGDTGNRTSHANSDYRLLNRTPTNQTGTRKYFKDNSIGGLEFLLANDIDNSNPAVQAEQLNWLHFMMNIGSIMANDPTANFDGLRVDALDNVDADLLQIASDYFKAAYGVDKSEANAIKHLSYLEAWSANDPYYNKDTKGAQLPIDNALRNALTNLLMRDKNTRMQLGDMTAFINSSLNPRGANDKNGERMANYIFTRAHDTEAQTIIQRIIRDRINPNLFGYNFTRDEIKKAFEIYNEDIDKAHKTYASYNLPSVYALMLTNKDSVTRVYYGDLYREDGHYMAKKTPYFDAIDTLLRARIKYVAGGQDMEVKKVGNDGLLTSVRYGKGANNRTDLGTSETRTQGMGVIMTNNYDFRLGSNETVTMNMGRAHRNQLYRPLLLTTKDGIATYLNDSDVPKKLLKRTDWNGNLTFNANDVFGVENVQVSGYLGVWVPYGAKANQDARTQPSNRANSDGQVYKSSAALDSQVMYEAFSNFQAFADDQPELYMNRVLAKNTDLLKAWGITSVGLPPQYVSSKDGTFLDSTIDNGYAFDDRYDMALSQNNKYGSLEDLLNVLRALHKDGIQAIADWVPDQIYNLPGKEVVNATRVNGYGNHQVGYQIIDQAYVANTRTDGTDYQGKYGGAFLDELKAKYPSIFNRVQISNGKQLPTNEKITKWSAKYFNGTNILGRGINYVLRDDKTNQYFNTSANSQLLPTPLRDTGAITSTQVFQRRGQDVYFLRDNQAVKNEFVQDGNGNWYYFGGDG
# modifications: T2 C-terminal truncation of GTF0974
# B4: GTF0459NTnativeT6: T6 C-terminal truncation of GTF0459, SEQ ID NO: 134, strain SG1298 (protein)
# chain: INGKQYYVNSDGSVRKNFVFEQDGKSYYFDAETGALATKSQDEFSTEPIKAAVDFSSGNQLYKNDNKSLDQLDTFITADAWYRPKSILKDGKTWTASTEADKRPLLMVWWPDKSTQVNYLNYMQNQGLGAGSFSTNSSQESLNLAAKAVQTKIEERIAREGNTNWLRTSIDQFIKTQPGWNSSTENSSYDHLQGGQLLFNNSKGDTGNRTSYANSDYRLLNRTPTNQSGTRKYFKDNSIGGLEFLLANDIDNSNPAVQAEQLNWLHFMMNIGSIMANDPTANFDGLRVDALDNVDADLLQIASDYFKAVYGVDKSEANAIKHLSYLEAWSANDPYYNKDTKGAQLPIDNALRNALTNLLMRDKNTRMQLGDMTAFMNSSLNPRGANDKNGERMANYIFTRAHDTEAQTIIQRIIRDRINPNLFGYNFTRDEIKKAFEIYNADINTAHKTYASYNLPSVYALMLTNKDSVTRVYYGDLYREDGHYMAKKTPYFDAIDTLLRARIKYVAGGQDMEVKKVGNDGLLTSVRYGKGANNSTDWGTTETRTQGMGVILTNNYDFRLGSNETVTMNMGRAHRNQLYRPLLLTTKDGLATYLNDSDVPSNLLKRTDWNGNLTFNANDVFGVENVQVSGYLGVWVPVGAKANQDARTQPSNRANSDGQVYKSSAALDSQVMYEAFSNFQAFADDQPELYMNRVLAKNTDLLKAWGVTSVGLPPQYVSSKDGTFLDSTIDNGYAFDDRYDMALSQNNKYGSLEDLLNVLRALHKDGIQAIADWVPDQIYNLPGKEVVNATRVNGYGYHQQGYQIVDQAYVANTRTDGTDYQGRYGGAFLDELKAKYPSIFNRVQISNGKQLPTNEKITKWSAKYFNGTNILGRGINYVLRDDKTNQYFNTSANGQLLPTPLRDTGAITSTQVFQRRGQDVYFLRDNQVIKNEFVQDGNGNWYYFGADGKMTKGAQNINSKDYYFFDNGVQLRNALRRASNGYTYYYGLDGAMIKNAFVDFDDKHQQVRAFTTQ
# modifications: T6 C-terminal truncation of GTF0459
# B5: GTF0459nativeNT: truncated Streptococcus sp. C150 Gtf-S glucosyltransferase, SEQ ID NO: 19, strain SG1273 (protein, listed as Streptococcus sp.)
# chain: MINGKQYYVNSDGSVRKNFVFEQDGKSYYFDAETGALATKSQDEFSTEPIKAAVDFSSGNQLYKNDNKSLDQLDTFITADAWYRPKSILKDGKTWTASTEADKRPLLMVWWPDKSTQVNYLNYMQNQGLGAGSFSTNSSQESLNLAAKAVQTKIEERIAREGNTNWLRTSIDQFIKTQPGWNSSTENSSYDHLQGGQLLFNNSKGDTGNRTSYANSDYRLLNRTPTNQSGTRKYFKDNSIGGLEFLLANDIDNSNPAVQAEQLNWLHFMMNIGSIMANDPTANFDGLRVDALDNVDADLLQIASDYFKAVYGVDKSEANAIKHLSYLEAWSANDPYYNKDTKGAQLPIDNALRNALTNLLMRDKNTRMQLGDMTAFMNSSLNPRGANDKNGERMANYIFTRAHDTEAQTIIQRIIRDRINPNLFGYNFTRDEIKKAFEIYNADINTAHKTYASYNLPSVYALMLTNKDSVTRVYYGDLYREDGHYMAKKTPYFDAIDTLLRARIKYVAGGQDMEVKKVGNDGLLTSVRYGKGANNSTDWGTTETRTQGMGVILTNNYDFRLGSNETVTMNMGRAHRNQLYRPLLLTTKDGLATYLNDSDVPSNLLKRTDWNGNLTFNANDVFGVENVQVSGYLGVWVPVGAKANQDARTQPSNRANSDGQVYKSSAALDSQVMYEAFSNFQAFADDQPELYMNRVLAKNTDLLKAWGVTSVGLPPQYVSSKDGTFLDSTIDNGYAFDDRYDMALSQNNKYGSLEDLLNVLRALHKDGIQAIADWVPDQIYNLPGKEVVNATRVNGYGYHQQGYQIVDQAYVANTRTDGTDYQGRYGGAFLDELKAKYPSIFNRVQISNGKQLPTNEKITKWSAKYFNGTNILGRGINYVLRDDKTNQYFNTSANGQLLPTPLRDTGAITSTQVFQRRGQDVYFLRDNQVIKNEFVQDGNGNWYYFGADGKMTKGAQNINSKDYYFFDNGVQLRNALRRASNGYTYYYGLDGAMIKNAFVDFDDKHQQVRAFTTQGTMVVGNLHWSGHHFYFDRETGIQAKDRIVRTDDGKLHYYVAQTGDMGRNVFATDSRTGKRYYFDADGNTVTGSRVIDGKTYYFNQDGSVGTAYSNRADSIIFENGKARYITPAGEIGRSIFVYNPATKAWNYFDKEGNRVTGRQYIDGNLYYFKEDGSQVKGAIVEENGIKYYYEPGSGILASGRYLQVGDDQWIYFKHDGSLAIGQVRADGGYLKYFDKNGIQVKGQTIVEDGHTYYYDADSGALVTSSFAEIAPNQWAYFNTEGQALKGKWTINGKEYYFDQNGIQYKGKAVKVGSRYKYYDENDGQPVTNRFAQIEPNVWAYFGADGYAVTGEQVINGQHLYFDQSGRQVKGAYVTVNGQRRYYDANTGEYIPGR
# Experiment: GTF activity of strains (PAHBAH assay)
# Assay type: biochemical
# Conditions: enzyme expressed in B. subtilis host
# Method in brief: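 Glucosyltransferase (GTF) activity of the bacterial strains was measured with the PAHBAH assay. The enzymes tested were truncated GTF variants produced in a Bacillus subtilis expression host. Measurements were split across three separate experiments, and each activity value is reported together with the experiment it came from because results varied slightly between experiments.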
Molecule,GTF activity of strains: Acitivity (Experiment Number 1) [U/mL],GTF activity of strains: Acitivity (Experiment Number 2) [U/mL]
B1,18.4,–
B2,33.7,–
B3,7.2,–
B4,28.5,–
B5,26.5,39.4
